Results from US7223731B2, “Thrombospondin-1 type 1 repeat polypeptides” (Beth Israel Deaconess Medical Center, Inc., priority 2000, dated 2007).

B1: TSR2+RFK: recombinant longer version of the second type 1 repeat of human TSP-1 including the RFK sequence, amino acids 411–473 (protein, listed as Homo sapiens)
chain: DKRFKQDGGWSHWSPWSSCSVTCGDGVITRIRLCNSPSPQMNGKPCEGEARETKACKKDACPI

Experiments:
B16F10 melanoma = experiment: Primary tumor growth assay, B16F10 melanoma; format: in vivo, C57BL/6 mice; conditions: for inhibition of B16F10 tumor growth: 1.0 mg/kg/day IP daily, twelfth day of treatment; for inhibition of B16F10 tumor growth (tumor volume): 2.5 mg/kg/day IP daily
Experimental: The proteins for injection were mixed with Polymyxin B-Agarose (Sigma) for 30 minutes at room temperature to remove endotoxin. The endotoxin levels were less than 0.05 EU/mg as determined using the QCL-1000 assay kit (Biowhittaker, Walkersville, Md.). Proteins were filter-sterilized and the protein concentration was determined prior to injection.
(§1) Five to eight week old C57BL/6 mice (Taconic, Germantown, N.Y.) were acclimated, caged in groups of four or less and their backs were shaved. Cultured B16F10 melanoma or Lewis lung carcinoma cells (1×10^6) were inoculated subcutaneously on the back of each mouse. Tumors were measured with a dial-caliper and the volumes were determined using the formula width^2×length×0.52. The treatment began 4 days after inoculation of the tumor cells. […] The experiments were terminated and mice sacrificed when the control mice began to die, usually at day 16 post-tumor cell injection.
Each treatment group contained six five- to eight-week old C57BL/6 mice. Treatment was initiated four days after subcutaneous injection of 1×10^6 B16F10 melanoma cells. The mice received one IP injection each day of saline, TSR2, TSR2+RFK or TSR2+QFK (SEQ ID NO: 23). A soluble form of the TGFβ receptor (100 μg/mouse/injection) (Smith, J. D. et al., Circulation Research 84:1212–1222, 1999) was included in the saline or TSR2+RFK injections on treatment day 1 and 7 for two additional experimental groups. The recombinant TSR-containing proteins were used at 1.0 mg/kg/day.
Each treatment group contained six five- to eight-week old C57BL/6 mice. Treatment was initiated four days after subcutaneous injections of 1×10^6 B16F10 melanoma cells. The mice received one IP injection each day, of saline, all three type 1 repeats of human TSP-1 [3TSR (TSP1) in FIG. 9] or all three type 1 repeats of mouse TSP-2 [3TSR (TSP2) in FIG. 9]. Recombinant proteins were used at a dose of 2.5 mg/kg/day.

Lewis lung carcinoma = experiment: Primary tumor growth assay, Lewis lung carcinoma; format: in vivo, C57BL/6 mice; conditions: 2.5 mg/kg/day IP daily, treatment day 12
Experimental: as §1, with “The proteins for injection were mixed with Polymyxin B-Agarose (Sigma) for 30 minutes at room temperature to remove endotoxin. The endotoxin levels were less than 0.05 EU/mg as determined using the QCL-1000 assay kit (Biowhittaker, Walkersville, Md.). Proteins were filter-sterilized and the protein concentration was determined prior to injection. Five” for “Five”

B16F10 tumor cell = B16F10 tumor cell proliferation in vitro; format: cell-based, murine

Molecule | B16F10 tumor growth inhibition (in words) (B16F10 melanoma; 0.25 mg/kg/day IP daily) | inhibition of B16F10 tumor growth (B16F10 melanoma) | inhibition of B16F10 tumor growth (tumor volume) (B16F10 melanoma) | inhibition of Lewis lung carcinoma tumor growth (Lewis lung carcinoma) | B16F10 tumor cell proliferation in vitro (in words) (B16F10 tumor cell)
TSR2: recombinant protein that contains the second TSR of human TSP-1, amino acids 416–473, excludes DKRFK | indistinguishable from the control group | 38% | 68% | – | –
B1 | – | 80% | 86% | 77% | inhibit
